Results on one molecule are retold here after patent publication US20240026011A1 (Takeda / Millennium, published 2024).

The assay has as its target T1, EGFR (UniProt P00533 25-645, limits assumed).
T1 construct: also called target EGFR

B1: Pro90 (hEGFR1) (other)
VHH: EVQLVESGGGLVQPGGSLRLSCAASGRTFSSYAMGWFRQAPGKEREFVVAINWSSGSTYYADSVKGRFTISRDNSKNTLYLQMNSLRAEDTAVYYCAAGYQINSGNYNFKDYEYDYWGQGTLVTVSS
The Kd is a measure of binding affinity in units of concentration. Low readings indicate higher affinity, high ones lower affinity. By koff is commonly meant the rate constant with which the complex falls apart. Higher therefore signals a short-lived complex. Broadly, the kon is the second-order rate constant of association. Turning to B1, the Kd turned out to be 2 nM, the koff was 0.00044 s⁻¹ and the kon worked out at 221000 M⁻¹ s⁻¹.
